Assay [1] addresses T1, fH6-7 (factor H CCP domains 6-7) (UniProt P08603 321-443).
T1 construct: domain: fH6-7; Analyte in SPR, 0.5 nM-32 nM
T1 sequence: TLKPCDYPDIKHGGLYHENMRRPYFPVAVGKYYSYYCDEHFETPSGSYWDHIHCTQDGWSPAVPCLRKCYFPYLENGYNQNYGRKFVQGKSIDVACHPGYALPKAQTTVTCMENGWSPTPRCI
Put plainly: SPR, Biacore 3000, protein on CM5 chip, fH6-7 as analyte.

Assay [2] concerns the target T2, factor H (fH), full length (human, UniProt P08603 19-1231).
T2 construct: mature; Far western used normal human serum diluted 1:100 as the source of fH; also called full length fH; purified full length fH
Briefly: ELISA, coated protein, purified full length fH. (In general: ELISA stands for enzyme-linked immunosorbent assay.)

Assay [3] has as its target T1, fH6-7 (factor H CCP domains 6-7). Put plainly: SPR, Biacore 3000, protein on CM5 chip. (Surface plasmon resonance follows binding to a sensor surface in real time, without labels.)

T2 sequence (P08603 19-1231): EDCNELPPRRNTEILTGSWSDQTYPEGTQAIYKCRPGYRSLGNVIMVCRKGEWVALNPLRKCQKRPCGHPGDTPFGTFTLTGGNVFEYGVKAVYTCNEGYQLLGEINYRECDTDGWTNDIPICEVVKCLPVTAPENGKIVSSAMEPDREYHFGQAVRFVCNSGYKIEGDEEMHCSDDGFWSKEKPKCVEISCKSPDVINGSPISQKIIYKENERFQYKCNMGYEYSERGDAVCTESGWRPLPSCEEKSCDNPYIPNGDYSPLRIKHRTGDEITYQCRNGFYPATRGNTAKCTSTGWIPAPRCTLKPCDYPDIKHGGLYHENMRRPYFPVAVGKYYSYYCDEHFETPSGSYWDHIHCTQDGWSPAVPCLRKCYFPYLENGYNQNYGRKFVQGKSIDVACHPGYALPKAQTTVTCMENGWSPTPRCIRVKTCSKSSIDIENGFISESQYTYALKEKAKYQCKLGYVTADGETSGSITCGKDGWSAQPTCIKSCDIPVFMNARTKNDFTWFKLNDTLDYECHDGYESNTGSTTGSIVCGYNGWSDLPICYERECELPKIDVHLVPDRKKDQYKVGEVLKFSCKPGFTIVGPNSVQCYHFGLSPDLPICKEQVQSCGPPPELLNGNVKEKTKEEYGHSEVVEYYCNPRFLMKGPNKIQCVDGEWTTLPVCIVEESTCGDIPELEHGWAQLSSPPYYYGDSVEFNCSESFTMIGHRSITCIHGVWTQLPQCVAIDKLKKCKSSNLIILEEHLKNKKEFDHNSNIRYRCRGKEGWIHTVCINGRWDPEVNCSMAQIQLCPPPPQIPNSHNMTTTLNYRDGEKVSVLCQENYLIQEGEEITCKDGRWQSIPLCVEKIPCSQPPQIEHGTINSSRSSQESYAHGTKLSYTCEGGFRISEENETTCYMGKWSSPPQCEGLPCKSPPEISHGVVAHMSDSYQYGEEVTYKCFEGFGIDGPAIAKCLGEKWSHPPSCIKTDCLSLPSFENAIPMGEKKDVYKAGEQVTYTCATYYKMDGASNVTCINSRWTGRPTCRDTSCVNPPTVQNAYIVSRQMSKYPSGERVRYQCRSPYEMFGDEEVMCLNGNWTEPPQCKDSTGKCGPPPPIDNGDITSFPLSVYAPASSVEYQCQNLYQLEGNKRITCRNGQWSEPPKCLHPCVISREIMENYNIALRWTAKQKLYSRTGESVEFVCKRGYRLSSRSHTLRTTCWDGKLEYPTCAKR

B1: Ghfp^M4 (R288H) (other)
chain: DKGLKSLTLEASIPQNGTLTLSAQGAEKTFKAGGKDNSLNTGKLKNDKISRFDFVQKIEVDGQTITLASGEFQIYKQDHSAVVALRIEKINNPDKIDSLINQRSFLVSDLGGEHTAFNQLPDGKAEYHGKAFSSDDADGKLTYTIDFAAKQGHGKIEHLKTPEQNVELASAELKADEKSHAVILGDTRYGGEEKGTYHLALFGDRAQEIAGSATVKIGEKVHEIGIADKQ
notes: Text prints R288H (numbering according to fHbp V1.1 structure)
In general, Kd refers to a measure of binding affinity in units of concentration. Read a low Kd as higher affinity. Consider B1, for which binding in assay [1] was put at a Kd of 16 nM. That is a double-digit nanomolar value.

B2: Ghfp^M5 (D318G) (other)
chain: DKGLKSLTLEASIPQNGTLTLSAQGAEKTFKAGGKDNSLNTGKLKNDKISRFDFVQKIEVDGQTITLASGEFQIYKQDHSAVVALRIEKINNPDKIDSLINQRSFLVSDLGGEHTAFNQLPDGKAEYHGKAFSSDDADGKLTYTIDFAAKQGHGKIEHLKTPEQNVELASAELKADEKSHAVILGDTRYGGEEKGTYRLALFGDRAQEIAGSATVKIGEKVHEIGIAGKQ
notes: Text prints D318G (fHbp V1.1 structure numbering)
Regarding B2, the binding result is reported as “no binding” in assay [2] and “no binding (tested: fH6-7 0.5 nM-32 nM)” in assay [3].

B3: Ghfp^M4-5 (R288H/D318G) (other)
chain: DKGLKSLTLEASIPQNGTLTLSAQGAEKTFKAGGKDNSLNTGKLKNDKISRFDFVQKIEVDGQTITLASGEFQIYKQDHSAVVALRIEKINNPDKIDSLINQRSFLVSDLGGEHTAFNQLPDGKAEYHGKAFSSDDADGKLTYTIDFAAKQGHGKIEHLKTPEQNVELASAELKADEKSHAVILGDTRYGGEEKGTYHLALFGDRAQEIAGSATVKIGEKVHEIGIAGKQ
notes: Text prints R288H/D318G (fHbp V1.1 structure numbering)
In assay [1], B3 registered a Kd of 2 nM.

Source of the values: patent US20160030544A1 (ISIS INNOVATION, published 2016).
